Test results as given in patent US20210261648A1 (published 2021).

How the values were obtained:
[1] = biological target: T1, FcγRIa extracellular domain with C-terminal His tag (human, UniProt P12314 16-292); test: SPR, captured antibody, FcgR analyte
T1 construct: also called FcgRIa
Description: (§1) Relative binding activities were calculated for the results of analyzing interactions with the respective FcγRs according to the following method.

[2] = biological target: T2, FcγRIIb extracellular domain with C-terminal His tag (human, UniProt P31994 43-217); test: SPR, captured antibody, FcgR analyte
T2 construct: extracellular domain; also called FcgRIIb
T2 sequence (looked up): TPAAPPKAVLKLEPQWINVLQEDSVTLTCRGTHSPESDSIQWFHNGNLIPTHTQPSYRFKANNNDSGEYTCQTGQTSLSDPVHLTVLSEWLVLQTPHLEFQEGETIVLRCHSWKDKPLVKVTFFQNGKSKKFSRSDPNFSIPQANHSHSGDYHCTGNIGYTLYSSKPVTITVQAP
Description: as §1

[3] = biological target: T3, FcγRIIIa type V extracellular domain with C-terminal His tag (human, UniProt P08637 17-208); test: SPR, captured antibody, FcgR analyte
T3 construct: extracellular domain; also called FcgRIIIaV; FcγRIIIaV
T3 sequence (P08637 17-208 F176V): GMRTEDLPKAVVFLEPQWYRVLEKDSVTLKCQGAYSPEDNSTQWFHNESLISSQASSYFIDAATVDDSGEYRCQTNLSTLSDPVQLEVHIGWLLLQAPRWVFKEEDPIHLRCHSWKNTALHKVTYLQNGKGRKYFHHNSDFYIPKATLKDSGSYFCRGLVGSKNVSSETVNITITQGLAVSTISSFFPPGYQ
Description: as §1

[4] = biological target: T4, FcγRIIb extracellular domain with C-terminal His tag (human, UniProt P31994 43-217); test: SPR binding amounts, FcgRIIb divided by FcgRIIaR
T4 construct: extracellular domain; For crystallography it was expressed with kifunensine and trimmed with Endo F1; also called FcgRIIb; FcγRIIb extracellular region; not shown: His tag attached to the C terminus
T4 sequence (looked up): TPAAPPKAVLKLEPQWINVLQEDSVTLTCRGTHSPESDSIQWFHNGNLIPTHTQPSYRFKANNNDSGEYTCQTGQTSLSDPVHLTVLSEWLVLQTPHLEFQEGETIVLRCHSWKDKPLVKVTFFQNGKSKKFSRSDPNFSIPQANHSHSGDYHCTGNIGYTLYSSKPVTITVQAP

[5] = biological target: T4, FcγRIIb extracellular domain with …; test: SPR binding amount, relative to GpH7-AP001/GpH7-BF648/GpL16-k0
[6] = biological target: T5, FcγRIIa type R extracellular domain with C-terminal His tag (human, UniProt P12318 34-217); test: as above
T5 chain: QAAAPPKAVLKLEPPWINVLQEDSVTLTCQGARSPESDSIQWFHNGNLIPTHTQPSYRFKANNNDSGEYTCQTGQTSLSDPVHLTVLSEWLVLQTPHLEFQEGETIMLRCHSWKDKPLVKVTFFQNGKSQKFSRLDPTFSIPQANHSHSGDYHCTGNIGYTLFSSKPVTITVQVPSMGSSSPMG

T1 sequence (P12314 16-292): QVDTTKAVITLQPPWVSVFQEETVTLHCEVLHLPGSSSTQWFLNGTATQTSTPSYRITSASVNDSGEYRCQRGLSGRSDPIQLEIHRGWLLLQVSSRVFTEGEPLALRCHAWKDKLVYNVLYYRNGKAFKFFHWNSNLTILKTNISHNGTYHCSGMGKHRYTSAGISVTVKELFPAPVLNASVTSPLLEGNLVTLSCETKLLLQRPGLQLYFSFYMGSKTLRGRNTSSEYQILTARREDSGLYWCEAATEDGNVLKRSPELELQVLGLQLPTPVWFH

Binder	relative binding activity [1]	relative binding activity [2]	relative binding activity [3]	amount binding to FcgRIIb/amount binding to FcgRIIaR [4]	binding amount to FcgRIIb when that of GpH7-AP001/GpH7-BF648 is defined as 100 [5]	binding amount to FcgRIIaR when that of GpH7-AP001/GpH7-BF648 is defined as 100 [6]
IL6R-BP199/IL6R-L (antibody, human IgG1, kappa) heavy: QVQLQESGPGLVKPSETLSLTCAVSGHSISHDHAWSWVRQPPGEGLEWIGFISYSGITNYNPSLQGRVTISRDNSKNTLYLQMNSLRAEDTAVYYCARSLARTTAMDYWGEGTLVTVSSASTKGPSVFPLAPSSKSTSGGTAALGCLVKDYFPEPVTVSWNSGALTSGVHTFPAVLQSSGLYSLSSVVTVPSSSLGTQTYICNVNHKPSNTKVDKKVEPKSCDKTHTCPPCPAPDLLGGDSVFLFPPKPKDTLMISRTPEVTCVVVDVSHEDPEVKFNWYVDGVEVHNAKTKPREEQYNSTYRVVSVLTVLHQDWLNGKEYKCKVSNDALPRPIEKTISKAKGQPREPQVYTLPPSRDELTKNQVSLTCLVKGFYPSDIAVEWESNGQPENNYKTTPPVLDSDGSFFLYSKLTVDKSRWQQGNVFSCSVMHEALHNHYTQESLSLSP light: not shown	112 relative (IL6R-BF648/IL6R-L = 100)	144 relative (IL6R-BF648/IL6R-L = 100)	103 relative (IL6R-BF648/IL6R-L = 100)	–	–	–
IL6R-BP207/IL6R-L (antibody, human IgG1, kappa) heavy: QVQLQESGPGLVKPSETLSLTCAVSGHSISHDHAWSWVRQPPGEGLEWIGFISYSGITNYNPSLQGRVTISRDNSKNTLYLQMNSLRAEDTAVYYCARSLARTTAMDYWGEGTLVTVSSASTKGPSVFPLAPSSKSTSGGTAALGCLVKDYFPEPVTVSWNSGALTSGVHTFPAVLQSSGLYSLSSVVTVPSSSLGTQTYICNVNHKPSNTKVDKKVEPKSCDKTHTCPPCPAPDLLGGDSVFLFPPKPKDTLMISRTPEVTCVVVDVSHEDPEVKFNWYVDGVEVHNAKTKPREEQYNSTYRVVSVLTVLHQDWLNGKEYKCKVSNKALPRPIEKTISKAKGQPREPQVYTLPPSRDELTKNQVSLTCLVKGFYPSDIAVEWESNGQPENNYKTTPPVLDSDGSFFLYSKLTVDKSRWQQGNVFSCSVMHEALHNHYTQESLSLSP light: not shown	74 relative (IL6R-BF648/IL6R-L = 100)	124 relative (IL6R-BF648/IL6R-L = 100)	97 relative (IL6R-BF648/IL6R-L = 100)	–	–	–
GpH7-AP001/GpH7-BP044/GpL16-k0 (antibody, human IgG1, kappa, Heterodimerized anti-glypican 3 IgG1; copies: 1 + 1 + 2) heavy 1: QVQLVQSGAEVKKPGASVTVSCKASGYTFTDYEMHWIRQPPGEGLEWIGAIDPKTGDTAYSESFQDRVTLTADKSTSTAYMELSSLTSEDTAVYYCTRFYSYTYWGQGTLVTVSSASTKGPSVFPLAPSSKSTSGGTAALGCLVKDYFPEPVTVSWNSGALTSGVHTFPAVLQSSGLYSLSSVVTVPSSSLGTQTYICNVNHKPSNTKVDKKVEPKSCDKTHTCPPCPAPELLGGDSVFLFPPKPKDTLMISRTPEVTCVVVDVSHEDPEVKFNWYVDGVEVHNAKTKPREEQYNSTYRVVSVLTVLHQDWLNGKEYKCKVSNKALPAPIEKTISKAKGQPREPQVYTLPPSRKELTKNQVSLTCLVKGFYPSDIAVEWESNGQPENNYKTTPPVLDSDGSFFLYSKLTVDKSRWQQGNVFSCSVMHEALHNRYTQKSLSLSP heavy 2: not shown light: DIVMTQSPLSLPVTPGEPASISCQASESLVHSNRNTYLHWYLQKPGQSPQLLIYKVSNRFSGVPDRFSGSGSGTDFTLKISRVEAEDVGVYYCSQNTHVPPTFGQGTKVEIERTVAAPSVFIFPPSDEQLKSGTASVVCLLNNFYPREAKVQWKVDNALQSGNSQESVTEQDSKDSTYSLSSTLTLSKADYEKHKVYACEVTHQGLSSPVTKSFNRGEC	–	–	–	0.8	127	609
GpH7-AP001/GpH7-BP057/GpL16-k0 (antibody, human IgG1, kappa, Heterodimerized anti-glypican 3 IgG1; copies: 1 + 1 + 2) heavy 1: QVQLVQSGAEVKKPGASVTVSCKASGYTFTDYEMHWIRQPPGEGLEWIGAIDPKTGDTAYSESFQDRVTLTADKSTSTAYMELSSLTSEDTAVYYCTRFYSYTYWGQGTLVTVSSASTKGPSVFPLAPSSKSTSGGTAALGCLVKDYFPEPVTVSWNSGALTSGVHTFPAVLQSSGLYSLSSVVTVPSSSLGTQTYICNVNHKPSNTKVDKKVEPKSCDKTHTCPPCPAPELLGGDSVFLFPPKPKDTLMISRTPEVTCVVVDVSHEDPEVKFNWYVDGVEVHNAKTKPREEQYNSTYRVVSVLTVLHQDWLNGKEYKCKVSNKALPAPIEKTISKAKGQPREPQVYTLPPSRKELTKNQVSLTCLVKGFYPSDIAVEWESNGQPENNYKTTPPVLDSDGSFFLYSKLTVDKSRWQQGNVFSCSVMHEALHNRYTQKSLSLSP heavy 2: not shown light: DIVMTQSPLSLPVTPGEPASISCQASESLVHSNRNTYLHWYLQKPGQSPQLLIYKVSNRFSGVPDRFSGSGSGTDFTLKISRVEAEDVGVYYCSQNTHVPPTFGQGTKVEIERTVAAPSVFIFPPSDEQLKSGTASVVCLLNNFYPREAKVQWKVDNALQSGNSQESVTEQDSKDSTYSLSSTLTLSKADYEKHKVYACEVTHQGLSSPVTKSFNRGEC	–	–	–	0.9	121	561
GpH7-AP001/GpH7-BP063/GpL16-k0 (antibody, human IgG1, kappa, name in EU numbering, Heterodimerized anti-glypican 3 IgG1) heavy 1: QVQLVQSGAEVKKPGASVTVSCKASGYTFTDYEMHWIRQPPGEGLEWIGAIDPKTGDTAYSESFQDRVTLTADKSTSTAYMELSSLTSEDTAVYYCTRFYSYTYWGQGTLVTVSSASTKGPSVFPLAPSSKSTSGGTAALGCLVKDYFPEPVTVSWNSGALTSGVHTFPAVLQSSGLYSLSSVVTVPSSSLGTQTYICNVNHKPSNTKVDKKVEPKSCDKTHTCPPCPAPELLGGDSVFLFPPKPKDTLMISRTPEVTCVVVDVSHEDPEVKFNWYVDGVEVHNAKTKPREEQYNSTYRVVSVLTVLHQDWLNGKEYKCKVSNKALPAPIEKTISKAKGQPREPQVYTLPPSRKELTKNQVSLTCLVKGFYPSDIAVEWESNGQPENNYKTTPPVLDSDGSFFLYSKLTVDKSRWQQGNVFSCSVMHEALHNRYTQKSLSLSP heavy 2: not shown light: DIVMTQSPLSLPVTPGEPASISCQASESLVHSNRNTYLHWYLQKPGQSPQLLIYKVSNRFSGVPDRFSGSGSGTDFTLKISRVEAEDVGVYYCSQNTHVPPTFGQGTKVEIERTVAAPSVFIFPPSDEQLKSGTASVVCLLNNFYPREAKVQWKVDNALQSGNSQESVTEQDSKDSTYSLSSTLTLSKADYEKHKVYACEVTHQGLSSPVTKSFNRGEC	–	–	–	1.7	69	161
GpH7-AP001/GpH7-BP069/GpL16-k0 (antibody, human IgG1, kappa, name in EU numbering, Heterodimerized anti-glypican 3 IgG1) heavy 1: QVQLVQSGAEVKKPGASVTVSCKASGYTFTDYEMHWIRQPPGEGLEWIGAIDPKTGDTAYSESFQDRVTLTADKSTSTAYMELSSLTSEDTAVYYCTRFYSYTYWGQGTLVTVSSASTKGPSVFPLAPSSKSTSGGTAALGCLVKDYFPEPVTVSWNSGALTSGVHTFPAVLQSSGLYSLSSVVTVPSSSLGTQTYICNVNHKPSNTKVDKKVEPKSCDKTHTCPPCPAPELLGGDSVFLFPPKPKDTLMISRTPEVTCVVVDVSHEDPEVKFNWYVDGVEVHNAKTKPREEQYNSTYRVVSVLTVLHQDWLNGKEYKCKVSNKALPAPIEKTISKAKGQPREPQVYTLPPSRKELTKNQVSLTCLVKGFYPSDIAVEWESNGQPENNYKTTPPVLDSDGSFFLYSKLTVDKSRWQQGNVFSCSVMHEALHNRYTQKSLSLSP heavy 2: not shown light: DIVMTQSPLSLPVTPGEPASISCQASESLVHSNRNTYLHWYLQKPGQSPQLLIYKVSNRFSGVPDRFSGSGSGTDFTLKISRVEAEDVGVYYCSQNTHVPPTFGQGTKVEIERTVAAPSVFIFPPSDEQLKSGTASVVCLLNNFYPREAKVQWKVDNALQSGNSQESVTEQDSKDSTYSLSSTLTLSKADYEKHKVYACEVTHQGLSSPVTKSFNRGEC	–	–	–	2.2	72	131
